Data set [1] deals with hESCs-CMs. In words: Contractile force and beat frequency measurement on arrays of microposts. In kind it is cell-based, human. The note with it: let-7 OE CMs; for beat frequency: EV control 1.57±0.1 hz; for average twitch force: EV control 7.77±0.7 nN/cell, P<0.001. The method, then: Arrays of silicone microposts were fabricated out of polydimethylsiloxane (PDMS) via a previously-described double-casting process using soft lithography from a SU8 master^19. Each micropost within the arrays used for these studies was 6.45 μm in height, 2.3 μm in diameter, and the center to center spacing between adjacent posts was 6 μm. Prior to cell seeding, the tips of these microposts were stamped with 50 μg/ml of mouse laminin (LIFE TECHNOLOGIES™), and the remaining surfaces of the array were fluorescently stained with BSA 594 and blocked with 0.2% Pluronic F-127 (in PBS)^20. CMs that were 1 week post pLKO-let-7 OE or EV lentiviral transfection, were seeded onto these arrays at a density of around 800,000 cells per substrate.
One week following cell seeding, muscle twitches from individual hESCs-CMs were recorded with high-speed video microscopy within a live cell chamber at 37° C. These images were acquired using a NIKON™ Ti-E upright microscope with a 60× water-immersion objective and a Hammamatsu ORCA™ camera. A custom MATLAB™ code was then used to compare each time frame of this video, to a reference fluorescent image, taken at the base plane of the posts. The twitch force at each post was subsequently calculated by multiplying the deflection of the post by the post's bending stiffness (38 nN/μm). The total twitch force produced by the cell was then determined by adding together the twitch force measured at each post beneath the cell. The average spontaneous beating frequency of the cells was determined by locating the time at which each beat reaches a maximum in the total twitch force (using the same MATLAB™ code), calculating the frequency between each sequential beat: 1/(time at which second beat occurs—time at which first beat occurs), and then averaging these frequencies across all of the measured twitch events.

Data set [2] has as its system let-7g OE CMs. In words: Whole genome transcriptome profiling (ILLUMINA RNA sequencing) of let-7g OE CMs vs. EV control CMs. In kind it is cell-based, human. From the text:
To further understand the effects of let-7 OE during cardiomyocyte maturation at a molecular level, the inventors carried out whole genome transcriptome profiling of let-7g OE CMs and corresponding EV control CMs using an ILLUMINA™ RNA sequencing platform. […] Using expression values for the genes that belonged to the 12 pathways (FIG. 1E), the inventors carried out a 2D-PCA comparing let-7g OE CMs and EV control CMs with H7-CMs at day 20 and 1 yr, IMR90iPSC-CMs at 1 yr and 3 month old HFA and HFV samples. […] Further evidence of let-7g directed maturation was observed from known isoform changes accompanying cardiomyocyte maturation, such as shifts in myosin heavy chain (MYH6/MYH7)^29 (FIG. 13). […] Focusing on the 34 differentially spliced genes in common among H7-CM-1yr, let-7 OE and fetal samples (FIG. 4C), the inventors identified the single transcript of each showing the greatest absolute change in proportion between H7-CM day 20 and the above three samples (data not shown). […] The same pattern emerges from analysis of the relative expression levels of all 377 isoforms (data not shown) of these 34 genes again showing that the developmental chronology of the samples is well captured by principal component 1. In short, there are concerted and dynamic changes in splicing during maturation. The fact that both differential splicing and differential expression analyses cluster let-7 OE CMs with H71yr-CM and fetal samples, clearly strengthens the finding that let-7 is critical for maturation.
Total RNAs for HFA and HFV samples were extracted using RNAeasy mini kit (QIAGEN™)^7. Total RNAs for all other samples were extracted with MIRNEASY™ mini kit (QIAGEN™) and were further DNAse treated with DNA-free kit (AMBION™). RNA and Small RNA libraries were prepared independently using TRUSEQ™ library preparation kits (ILLUMINA™) following the manufacturer's protocols. […] Sequence data for miRNAs were analyzed using miRDeep2™ software^8. […] For mRNA sequencing analysis, mRNA reads from samples were mapped to hg19 reference genome using STAR version 2.3.010. BAM files produced by STAR were analyzed with Cufflinks version 2.1.1_11 run in de novo mode. […]
Gene and transcript abundance was estimated using Markov chain Monte Carlo to sample from a hierarchical Bayesian model. […] Under this model, estimates from transcripts with very low data are effectively shrunk towards each other to avoid spuriously highfold-change estimates that can occur when using simple read or fragment count estimates. Expression estimates, measured in transcripts per million (TPM), and adjusted using upper quantile normalization^12, were generated for the Ensembl 74 gene annotation database^13.
Separately, statistical significance of differential expression at the gene level was analyzed using DESeq^14. […]

For data set [3], the system named is HECT293FT cells. In words: Lipofectamine transient transfection of plko-let-7g and plko-let-7g-E plasmids, mature let-7g and target expression after 24 hrs. In kind it is cell-based. The following applies: 24 hrs after transfection. The method, then: FIGS. 20A-20B Modified let-7g (let-7g-E) is more efficient in generating mature let-7g in HECT293FT cells. Let-7g and a modified version of let-7g (plko-let-7g-E) were induced in hect 293 FT cells by introducing plko-let-7g and plko-let-7g-E plasmids with lipofectamine transient transfection assay. 24 hrs after transfection, cells were tested for mature let-7g expression. […] (FIG. 20B) Targets of let-7 are repressed when we over-express let-7g-E similar to that seen during over-expression of let-7g.

The values below come from US9624471B2, “Methods for maturing cardiomyocytes and uses thereof” (UNIVERSITY OF WASHINGTON THROUGH ITS CENTER FOR …, priority 2013, dated 2017).

B1: let-7i: human let-7 family miRNA, SEQ ID NO: 10, overexpressed from pLKO lentiviral pri-miR-let-7i construct (nucleic acid, listed as Homo sapiens)
chain: CUGGCUGAGGUAGUAGUUUGUGCUGUUGGUCGGGUUGUGACAUUGCCCGCUGUGGAGAUAACUGCGCAAGCUACUGCCUUGCUA
For the molecule B1, in data set [1], the beat frequency is 1.05±0.1 hz and the average twitch force was 11.32±0.86 nN/cell.

B2: let-7g: human let-7 family miRNA, SEQ ID NO: 9, overexpressed from pLKO lentiviral pri-miR-let-7g construct (nucleic acid, listed as Homo sapiens)
chain: AGGCUGAGGUAGUAGUUUGUACAGUUUGAGGGUCUAUGAUACCACCCGGUACAGGAGAUAACUGUACAGGCCACUGCCUUGCCA
For B2, in data set [1], the beat frequency turned out to be 0.92±0.094 hz and the average twitch force came to 9.28±0.7 nN/cell. Also, in data set [2] (RNA sequencing, compared to EV control), the “maturation markers RYR2, MYH7, KCNJ2 expression” value is recorded as “increased expression”. Also, in data set [2] (in comparison to EV control), the “FA metabolism (gene expression, density plots)” value is listed as “significantly up-regulated” and the “PI3/AKT/Insulin signaling (gene expression, density plots)” value was “significantly down-regulated”. In data set [2] (vs. H7-CMs day 20 and 1 yr, EV control), the “position in dimension 1 of 2D-PCA (genes of 12 pathways)” value was “closer to 1 yr than the EV and day 20 CMs”. Besides, the “Targets of let-7 expression” value in data set [3] is listed as “repressed”.
